From US20210130452A1 (Merck KGaA, published 2021)
Substitutions are numbered along the chain they refer to.

T1: mouse IL-17A (mouse, UniProt Q62386 26-158)
T1 sequence (looked up): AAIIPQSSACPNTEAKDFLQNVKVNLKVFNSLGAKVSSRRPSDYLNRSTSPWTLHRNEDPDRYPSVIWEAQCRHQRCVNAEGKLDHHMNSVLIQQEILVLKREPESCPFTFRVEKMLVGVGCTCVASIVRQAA

T2: rat IL-17A (rat, UniProt Q61453 18-150, limits assumed)
T2 construct: made in E. coli, bought
T2 sequence (looked up): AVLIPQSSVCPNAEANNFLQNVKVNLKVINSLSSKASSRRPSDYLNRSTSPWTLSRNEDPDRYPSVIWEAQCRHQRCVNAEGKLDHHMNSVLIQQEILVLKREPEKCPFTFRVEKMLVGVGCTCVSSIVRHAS

T3: mouse IL-17F (mouse, UniProt Q7TNI7 29-161)
T3 sequence (looked up): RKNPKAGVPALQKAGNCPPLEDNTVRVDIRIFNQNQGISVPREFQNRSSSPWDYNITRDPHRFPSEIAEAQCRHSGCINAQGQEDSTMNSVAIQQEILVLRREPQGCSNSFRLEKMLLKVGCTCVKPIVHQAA

T4: rat IL-17F (rat, UniProt Q5BJ95 29-161)
T4 sequence (looked up): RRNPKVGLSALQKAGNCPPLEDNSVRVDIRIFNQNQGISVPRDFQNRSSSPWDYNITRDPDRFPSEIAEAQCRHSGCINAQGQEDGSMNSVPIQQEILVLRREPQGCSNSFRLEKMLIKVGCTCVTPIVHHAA

T5: human IL-17B (human, UniProt Q9UHF5 21-180)
T5 construct: expressed in E. coli; also called hIL-17B
T5 sequence (looked up): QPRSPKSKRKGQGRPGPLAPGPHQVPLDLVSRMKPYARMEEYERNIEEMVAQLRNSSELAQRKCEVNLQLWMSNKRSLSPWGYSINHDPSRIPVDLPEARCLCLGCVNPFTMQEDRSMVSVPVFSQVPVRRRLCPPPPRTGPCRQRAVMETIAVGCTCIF

T6: human IL-17C (human, UniProt Q9P0M4 19-197)
T6 construct: expressed in E. coli; also called hIL-17C
T6 sequence (looked up): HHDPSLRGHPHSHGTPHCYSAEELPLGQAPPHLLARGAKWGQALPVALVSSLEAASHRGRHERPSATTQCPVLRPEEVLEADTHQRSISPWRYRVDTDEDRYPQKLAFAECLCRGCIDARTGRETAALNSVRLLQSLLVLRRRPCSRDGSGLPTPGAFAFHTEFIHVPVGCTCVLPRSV

T7: human IL-17D (human, UniProt Q8TAD2 18-202, limits assumed)
T7 construct: expressed in E. coli; also called hIL-17D
T7 sequence (looked up): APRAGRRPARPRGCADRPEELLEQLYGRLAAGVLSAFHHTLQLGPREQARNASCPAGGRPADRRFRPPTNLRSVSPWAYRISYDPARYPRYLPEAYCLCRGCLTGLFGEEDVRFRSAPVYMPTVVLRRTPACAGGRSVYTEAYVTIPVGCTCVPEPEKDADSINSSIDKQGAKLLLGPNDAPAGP

T8: human IL-17E (human, UniProt Q9H293 33-177)
T8 construct: expressed in E. coli; also called hIL-17E
T8 sequence (looked up): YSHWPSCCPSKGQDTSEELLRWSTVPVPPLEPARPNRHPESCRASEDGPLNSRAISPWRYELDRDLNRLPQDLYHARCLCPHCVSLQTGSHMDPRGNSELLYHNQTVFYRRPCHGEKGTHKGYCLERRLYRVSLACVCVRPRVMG

T9: human IL-17F (human, UniProt Q96PD4 31-163)
T9 construct: made in Hek293 cells (GenBank AF384857); also called hIL-17F; hIL17F
T9 sequence: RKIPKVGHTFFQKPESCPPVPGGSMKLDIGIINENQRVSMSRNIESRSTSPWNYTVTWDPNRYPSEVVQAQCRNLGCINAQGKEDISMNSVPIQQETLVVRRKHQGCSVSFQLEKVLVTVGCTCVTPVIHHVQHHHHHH

B1: 09G10 (VHH)
VHH: EVQLVESGGGLVQAGGSLRLSCAASDSVFTAKAVGWYRQPPGLQREWVAIITSGGKTNYADSSVKGRFTVSVDKVKNTVTLQMNSLKPEDTAVYYCYAQWMGRDYWGQGTQVTVSS
notes: Class 2
B2: 04B09 (VHH)
VHH: EVQLVESGGGLVQPGGSLRLSCAASGFTLGYYAIGWFRQAPGKEREGVSCDSSSDGDTYYANSVKGRFTISTDNGKNTVYLQMNSLKPEDTAVYYCATCTDWNYDYWGQGTQVTVSS
notes: Class 2; also called 04B9
B3: 13E02 (VHH)
VHH: EVQLVESGGGLVQAGGSLRLSCAASGRTYDAMGWLRQAPGKEREFVAAISGSGDDTYYADSVKGRFTISKDNAGITMYLQMNSLKPEDTAVYYCATRRGLYYVWDSNDYENWGQGTQVTVSS
notes: Class 4; also called IL17MS13E02
B4: 11A06 (VHH)
VHH: EVQLVESGGGLVQPGESLRLSCKASGFSLDYYALGWFRQAPGKEREGISCITSSDASAYYTDSVKGRFTISRDNSKNTVYLQMNSLKTEDTAIYYCAAALLTCSSYYDAYTYWGQGTQVTVSS
notes: Class 2
B5: 11C08 (VHH)
VHH: EVQLVESGGGLVQAGGSLRLSCAASGVIFRLNAMGWYRAAPGKQRELVAIIVNGGSTNYADSVKGRFTISRDSAKNAVYLQMNSLKPEDTAVYYCYYNIPGDVYWGQGTQVTVSS
notes: Class 4
B6: 13B03 (VHH)
VHH: EVQLVESGGGSVQAGDSLRLSCAASGRANSINWFGWFRQTPGKEREFVAGIRWSDAYTEYANSVKGRFTISRDNAKNTVDLQMDSLKPEDTAVYYCVLDLSTVRYWGQGTQVTVSS
notes: Class 4; also called IL17MS13B03
B7: 03C07 (VHH)
VHH: EVQLVESGGGLVQAGGSLRLSCAASGFTFDDYAIGWFRQAPGKEREAVSCFSSSDGSIYYADSVKGRFTISSDNAKNTVYLQMNSLKPEDTAVYYCAGGGGSYYYTQLNYCYDMDYWGKGTQVTVSS
notes: Class 2
B8: 13B05 (VHH)
VHH: EVQLVESGGRLVQAGGSLRLSCAASGRTFTSYPMGWFRQAPGKEREFVAAISMSGDDTAYTDFVRGRFTISRDDARNTVYLHMTSLKPEDTAVYYCAARTSYDGTYDYIDDYSYWGQGTQVTVSS
notes: Class 4
B9: 17C01 (VHH)
VHH: B8 VHH with S21P, T58A, T61A
notes: Class 4
B10: 04G01 (VHH)
VHH: EVQLVESGGGLVQAGGSQRLSCTASGTIVNIHVMGWYRQAPGKQRELVALIFSGGSADYADSVKGRFTISRDNAKNTVYLEMNSLKAEDTAVYYCAAEIGYYSGGTYYSSEAHWGQGTQVTVSS
notes: Class 2; also called IL17MS04G01; 04G1
B11: 01A01 (VHH)
VHH: EVQLVESGGGLVQAGGSLRLSCAASGFTFDDYDIGWFRQAPGKEREGVSCFTSSDGRTFYADSVKGRFTVSADNAKNTVYLQMNSLEPEDTAVYFCAAVNTFDESAYAAFACYDVVRWGQGTQVTVSS
notes: Class 4
B12: IL17MS3027 (VHH)
VHH: B3 VHH with A14P, K70R, A73S, I75N, K85R, Q117L
notes: variant of IL17MS13E02; Kabat numbering
B13: IL17MS3032 (VHH)
VHH: B3 VHH with A14P, K70R, A73S, G74K, I75N, K85R, Q117L
notes: as for B12

Molecular target: T1, mouse IL-17A
Assay: binding ELISA
Method: (§1) Binding of a selected panel of anti-IL-17 Nanobodies to IL-17 of other species was assessed using a binding ELISA. […] HRP (horseradish peroxidase) conjugated anti-myc (Serotec, MCA 2200P) was used for detection using esTMB as substrate.

Binder	binding result
B1	no binding (tested: 250 nM)
B2	no binding (tested: 250 nM)
B3	no binding (tested: 250 nM)
B4	no binding (tested: 250 nM)
B5	no binding (tested: 250 nM)
B6	no binding (tested: 250 nM)
B7	no binding (tested: 250 nM)
B8	no binding (tested: 250 nM)
B9	no binding (tested: 250 nM)
B10	no binding (tested: 250 nM)
B11	no binding (tested: 250 nM)

Molecular target: T2, rat IL-17A
Assay: binding ELISA
Method: as §1

Binder	binding result
B1	no binding (tested: 250 nM)
B2	no binding (tested: 250 nM)
B3	no binding (tested: 250 nM)
B4	no binding (tested: 250 nM)
B5	no binding (tested: 250 nM)
B6	no binding (tested: 250 nM)
B7	no binding (tested: 250 nM)
B8	no binding (tested: 250 nM)
B9	no binding (tested: 250 nM)
B10	no binding (tested: 250 nM)
B11	no binding (tested: 250 nM)

Molecular target: T3, mouse IL-17F
Assay: binding ELISA
Method: as §1

Binder	binding result
B3	no binding (tested: 250 nM)
B5	no binding (tested: 250 nM)
B6	no binding (tested: 250 nM)
B8	no binding (tested: 250 nM)
B9	no binding (tested: 250 nM)
B11	no binding (tested: 250 nM)

Molecular target: T4, rat IL-17F
Assay: binding ELISA
Method: as §1

Binder	binding result
B3	no binding (tested: 250 nM)
B5	no binding (tested: 250 nM)
B6	no binding (tested: 250 nM)
B8	no binding (tested: 250 nM)
B9	no binding (tested: 250 nM)
B11	no binding (tested: 250 nM)

Molecular target: T5, human IL-17B
Assay: SPR, cytokine on chip
From the text: (§2) Human IL-17B, IL-17C, IL-17D or IL-17E were all expressed in E. coli, and covalently bound to a CM sensor chip surface via amine coupling using EDC/NHS for activation and HCl for deactivation.
(§3) Next, binding buffer was sent over the chip at the same flow rate to allow spontaneous dissociation of bound Nanobody or antibody.

Binder	binding result
B1	no binding
B2	no binding
B3	no binding
B4	no binding
B5	no binding
B6	no binding
B7	no binding
B8	no binding
B9	no binding
B10	no binding
B11	no binding

Molecular target: T6, human IL-17C
Assay: SPR, cytokine on chip
From the text: as §2, §3

Binder	binding result
B1	no binding
B2	no binding
B3	no binding
B4	no binding
B5	no binding
B6	no binding
B7	no binding
B8	no binding
B9	no binding
B10	no binding
B11	no binding

Molecular target: T7, human IL-17D
Assay: SPR, cytokine on chip
From the text: as §2, §3

Binder	binding result
B1	no binding
B2	no binding
B3	no binding
B4	no binding
B5	no binding
B6	no binding
B7	no binding
B8	no binding
B9	no binding
B10	no binding
B11	no binding

Molecular target: T8, human IL-17E
Assay: SPR, cytokine on chip
From the text: as §2, §3

Binder	binding result
B1	no binding
B2	no binding
B3	no binding
B4	no binding
B5	no binding
B6	no binding
B7	no binding
B8	no binding
B9	no binding
B10	no binding
B11	no binding

Molecular target: T9, human IL-17F
Assay: SPR (Biacore) off-rate

Binder	koff
B12	0.0013 s⁻¹
B13	0.00083 s⁻¹

Molecular target: T10, human IL-17A (human, UniProt Q16552 24-155)
T10 construct: secreted form made in Hek293 cells (GenBank U32659); also called hIL-17A; hIL17A
Assay: AlphaScreen hIL-17A-IL-17RA; vs IL17MS13E02

T10 sequence (Q16552 other isoform, or with tags, fused parts or gaps): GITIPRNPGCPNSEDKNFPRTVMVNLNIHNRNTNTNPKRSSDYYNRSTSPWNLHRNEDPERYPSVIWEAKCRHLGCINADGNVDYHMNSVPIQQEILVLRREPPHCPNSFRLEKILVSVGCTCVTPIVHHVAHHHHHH

Binder	IC50 fold difference vs WT
B12	1.23 fold
B13	1.42 fold

Molecular target: T9, human IL-17F
Assay: AlphaScreen hIL-17F-IL-17RC; vs IL17MS13E02

Binder	IC50 fold difference vs WT
B12	0.6 fold
B13	0.5 fold
